Values quoted from earlier work in article PMC8174820.

System: Tyr134
Test: chemical modification

Cellular retinoic acid binding protein 2 (CRABP2) (Homo sapiens (inferred; the review discusses the human proteome but does not name the species for CRABP2))
pKa: ∼7.6
